The text below walks through data of article PMC2748081 (Reproductive Biology and Endocrinology : RB&E, 2009).

The assay deals with T1, heat shock cognate protein 70 (Hsc70), recombinant, full length (mouse, UniProt P63017 1-646).
T1 construct: Hsc70 (heat shock cognate protein 70), cDNA by RT-PCR from total RNA of mouse TG cells; primers 'Hsc70 full length' from the start codon (MSKGPAV) to the stop codon (TIEEVD); some vector residues may remain; also called Full Hsc70; recombinant Hsc70; source: E. coli DH5α, pCold TF vector, purified (Ni-NTA), tag cleaved with human rhinovirus 3C protease
T1 sequence (P63017 whole entry): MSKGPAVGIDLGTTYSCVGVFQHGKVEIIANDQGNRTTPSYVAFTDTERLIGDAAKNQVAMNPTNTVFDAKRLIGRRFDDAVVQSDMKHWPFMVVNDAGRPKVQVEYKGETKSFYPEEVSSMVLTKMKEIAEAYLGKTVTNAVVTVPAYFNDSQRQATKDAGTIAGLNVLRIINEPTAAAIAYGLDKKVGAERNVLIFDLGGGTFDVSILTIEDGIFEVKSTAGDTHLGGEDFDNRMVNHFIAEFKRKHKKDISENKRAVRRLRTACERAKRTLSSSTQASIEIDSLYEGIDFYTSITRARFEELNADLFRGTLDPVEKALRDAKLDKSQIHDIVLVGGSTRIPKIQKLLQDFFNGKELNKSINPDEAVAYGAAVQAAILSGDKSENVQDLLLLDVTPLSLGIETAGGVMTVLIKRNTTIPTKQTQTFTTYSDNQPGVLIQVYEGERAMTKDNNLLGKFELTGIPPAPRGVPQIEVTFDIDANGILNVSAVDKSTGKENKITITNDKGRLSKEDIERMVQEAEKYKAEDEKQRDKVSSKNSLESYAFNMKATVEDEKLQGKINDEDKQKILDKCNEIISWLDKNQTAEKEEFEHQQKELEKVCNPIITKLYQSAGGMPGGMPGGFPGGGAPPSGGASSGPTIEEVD
In words: pull-down; purified recombinant Hsc70 and each ERM protein (20 μg/ml) mixed in PBS, 37°C 2 h, precipitated with anti-Hsc70 antibody on protein G agarose beads or beads only; detection by immunoblotting. As to conditions: both partners purified. (In general: Immunoblotting shows a protein as a band on a membrane.)

B1: radixin, recombinant (natural protein, mouse, UniProt P26043 1-583, looked up)
chain: MPKPINVRVTTMDAELEFAIQPNTTGKQLFDQVVKTVGLREVWFFGLQYVDSKGYSTWLKLNKKVTQQDVKKENPLQFKFRAKFFPEDVSEELIQEITQRLFFLQVKEAILNDEIYCPPETAVLLASYAVQAKYGDYNKEIHKPGYLANDRLLPQRVLEQHKLTKEQWEERIQNWHEEHRGMLREDSMMEYLKIAQDLEMYGVNYFEIKNKKGTELWLGVDALGLNIYEHDDKLTPKIGFPWSEIRNISFNDKKFVIKPIDKKAPDFVFYAPRLRINKRILALCMGNHELYMRRRKPDTIEVQQMKAQAREEKHQKQLERAQLENEKKKREIAEKEKERIEREKEELMERLRQIEEQTVKAQKELEEQTRKALELEQERQRAKEEAERLDRERRAAEEAKSAIAKQAADQMKNQEQLAAELAEFTAKIALLEEAKKKKEEEATEWQHKAFAAQEDLEKTKEELKTVMSAPPPPPPPPVIPPTENEHDEQDENSAEASAELSSEGVMNHRSEEERVTETQKNERVKKQLQALSSELAQARDETKKTQNDVLHAENVKAGRDKYKTLRQIRQGNTKQRIDEFEAM
notes: radixin, cDNA by RT-PCR from total RNA of mouse TG cells; primers from the start codon (MPKPINVR) to the stop codon (IDEFEAM); also called ERM protein
For the molecule B1, the binding result was “binds”.

B2: moesin, recombinant (natural protein, mouse, UniProt P26041 1-577, looked up)
chain: MPKTISVRVTTMDAELEFAIQPNTTGKQLFDQVVKTIGLREVWFFGLQYQDTKAFSTWLKLNKKVTAQDVRKESPLLFKFRAKFYPEDVSEELIQDITQRLFFLQVKEGILNDDIYCPPETAVLLASYAVQSKYGDFNKEVHKSGYLAGDKLLPQRVLEQHKLNKDQWEERIQVWHEEHRGMLREDAVLEYLKIAQDLEMYGVNYFSIKNKKGSELWLGVDALGLNIYEQNDRLTPKIGFPWSEIRNISFNDKKFVIKPIDKKAPDFVFYAPRLRINKRILALCMGNHELYMRRRKPDTIEVQQMKAQAREEKHQKQMERALLENEKKKRELAEKEKEKIEREKEELMEKLKQIEEQTKKAQQELEEQTRRALELEQERKRAQSEAEKLAKERQEAEEAKEALLQASRDQKKTQEQLASEMAELTARISQLEMARKKKESEAVEWQQKAQMVQEDLEKTRAELKTAMSTPHVAEPAENEHDEQDENGAEASAELRADAMAKDRSEEERTTEAEKNERVQKHLKALTSELANARDESKKTANDMIHAENMRLGRDKYKTLRQIRQGNTKQRIDEFESM
notes: moesin, cDNA by RT-PCR from total RNA of mouse TG cells as the methods say; primers from the start codon (MPKTISVR) to the stop codon (IDEFESM); also called ERM protein; source: E. coli DH5α, pCold TF vector, purified (Ni-NTA), tag cleaved with human rhinovirus 3C protease
For B2, the binding result was “binds”.

B3: ezrin, recombinant (natural protein, mouse, UniProt P26040 1-586, looked up)
chain: MPKPINVRVTTMDAELEFAIQPNTTGKQLFDQVVKTIGLREVWYFGLQYVDNKGFPTWLKLDKKVSAQEVRKENPVQFKFRAKFYPEDVAEELIQDITQKLFFLQVKDGILSDEIYCPPETAVLLGSYAVQAKFGDYNKEMHKSGYLSSERLIPQRVMDQHKLSRDQWEDRIQVWHAEHRGMLKDSAMLEYLKIAQDLEMYGINYFEIKNKKGTDLWLGVDALGLNIYEKDDKLTPKIGFPWSEIRNISFNDKKFVIKPIDKKAPDFVFYAPRLRINKRILQLCMGNHELYMRRRKPDTIEVQQMKAQAREEKHQKQLERQQLETEKKRRETVEREKEQMLREKEELMLRLQDYEQKTKRAEKELSEQIEKALQLEEERRRAQEEAERLEADRMAALRAKEELERQAQDQIKSQEQLAAELAEYTAKIALLEEARRRKEDEVEEWQHRAKEAQDDLVKTKEELHLVMTAPPPPPPPVYEPVNYHVQEGLQDEGAEPMGYSAELSSEGILDDRNEEKRITEAEKNERVQRQLLTLSNELSQARDENKRTHNDIIHNENMRQGRDKYKTLRQIRQGNTKQRIDEFEAM
notes: ezrin, cDNA by RT-PCR from total RNA of mouse TG cells; primers from the start codon (MPKPINVR) to the stop codon (IDEFEAM); also called ERM protein; source: E. coli DH5α, pCold TF vector, purified (Ni-NTA), tag cleaved with human rhinovirus 3C protease
As to B3, the binding result is “binds”.
